For assay [1], the target named is CD20 (human) (UniProt P11836). In words: flow cytometry, RCT binding to Toledo cells. (A flow cytometer gives signals particle by particle.)
For assay [2], the target named is CD20 (human) (UniProt P11836). Put plainly: flow cytometry, RCT binding to SU-DHL4 cells.
Assay [3] concerns the target CD20 (human) (UniProt P11836). In words: flow cytometry, RCT binding to Z138 cells.
The target of assay [4] is CD20 (human) (UniProt P11836). In words: flow cytometry, RCT binding to Granta-519 cells.
Assay [5] deals with CD20 (human) (UniProt P11836). In words: cell-based or functional assay.
The target of a further assay is PD-1 (UniProt Q15116). In words: cell-based or functional assay.
The target in the next assay is T1, CD20 (human, UniProt P11836 1-297).
T1 construct: whole, on cells; Endogenous CD20 on lymphoma cell lines; also called CD20 on CD20-expressing cell lines (Raji, Ramos, Z138, Granta-519, Toledo, SU-DHL4, DOHH-2)
T1 sequence (looked up): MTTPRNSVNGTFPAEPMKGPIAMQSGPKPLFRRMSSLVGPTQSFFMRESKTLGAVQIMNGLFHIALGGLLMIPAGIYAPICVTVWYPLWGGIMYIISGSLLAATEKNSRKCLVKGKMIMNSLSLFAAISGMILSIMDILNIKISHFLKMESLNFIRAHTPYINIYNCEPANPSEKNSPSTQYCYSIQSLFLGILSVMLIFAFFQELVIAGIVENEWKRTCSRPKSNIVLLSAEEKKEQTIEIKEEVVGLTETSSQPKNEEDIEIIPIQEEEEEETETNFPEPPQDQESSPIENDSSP
Put plainly: immunofluorescence of co-culture with Ramos cells.

Chain of PD-1 (Q15116 25-288 limits assumed): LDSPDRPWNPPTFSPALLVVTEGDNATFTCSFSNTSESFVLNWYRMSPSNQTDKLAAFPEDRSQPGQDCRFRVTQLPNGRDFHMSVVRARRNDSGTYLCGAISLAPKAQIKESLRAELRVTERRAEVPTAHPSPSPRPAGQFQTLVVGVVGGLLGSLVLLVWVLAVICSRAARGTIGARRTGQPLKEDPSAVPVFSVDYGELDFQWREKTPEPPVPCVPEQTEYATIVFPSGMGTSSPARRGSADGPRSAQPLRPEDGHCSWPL

On to “RCT-antiCD20: enucleated erythroid cells expressing on their surface a fusion protein of a rituximab CD20 scFv domain, an HA epitope tag and full-length GPA”, for which the Percent cells bound in the assay with CD20 (human) [1] was determined as 37.1%; with CD20 (human) [2], 91.3%; in the assay with CD20 (human) [3], 43.7%; with CD20 (human) [4] it was 76%. Further, the apoptosis of Ramos cells after 48 hours of co-culture in the assay with CD20 (human) [5] was 32%.

Consider “RCT-antiPD1: enucleated erythroid cells expressing a fusion protein of a pembrolizumab-based anti-PD-1 scFv domain, an epitope tag (HA or Flag) and full-length GPA”, for which the interferon-gamma secretion of PBMC in an antigen recall assay in the assay with PD-1 lay within 3 to 4 fold.

B1: RCT-HA-GPA: control enucleated erythroid cells expressing on their surface the HA epitope tag fused to the N terminus of full-length GPA (other, not shown: small tags and cut ends)
chain: LSTTEVAMHTSTSSSVTKSYISSQTNDTHKRDTYAATPRAHEVSEISVRTVYPPEEETGERVQLAHHFSEPEITLIIFGVMAGVIGTILLISYGIRRLIKKSPSDVKPLPSPDTDVPLSSVEIENPETSDQ
notes: also called HA-GPA control RCT; control RCT-HA-GPA
With B1, the binding result with CD20 is on record as “no binding”.

The values above are taken from patent publication US20200345845A1 (RUBIUS THERAPEUTICS, published 2020).
